In the supplement of paper PMC5998384:

Key:
HeLa Kyoto [1] = assay: solubility change mitosis vs G1/S (difference of NP-40 vs SDS log2 ratios) (log2 ratio difference); higher = more soluble in mitosis
HeLa Kyoto [2] = assay: solubility in G1/S (NP-40 vs SDS abundance) (log2 ratio); higher = more soluble; details: cell cycle stage: G1/S
HeLa Kyoto [3] = assay: melting temperature (median over replicates), in situ; higher = more thermally stable
HeLa Kyoto [4] = assay: thermal stability score vs G1/S (z-score of summed log2 fold changes over temperatures); higher = more thermally stable than in G1/S
[5] = cell cycle stage: early G1 (4.5 h after nocodazole release)
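Wherever melting temperature (median over replicates), in situ is given: HeLa Kyoto cells synchronized by double thymidine or nocodazole block, proteins quantified by TMT10plex mass spectrometry, three independent biological replicates.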
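Wherever solubility change mitosis vs G1/S (difference of NP-40 vs SDS log2 ratios) is given: synchronized HeLa Kyoto cells (double thymidine block for G1/S, nocodazole release for mitosis), protein amounts in NP-40 versus SDS lysates quantified by mass spectrometry, three biological replicates.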
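Wherever solubility in G1/S (NP-40 vs SDS abundance) is given: HeLa Kyoto cells arrested at G1/S by double thymidine block, proteins quantified by TMT10plex mass spectrometry in mild NP-40 versus SDS extracts, three biological replicates.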
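Wherever thermal stability score vs G1/S (z-score of summed log2 fold changes over temperatures) is given: synchronized HeLa Kyoto cells, proteins quantified by TMT10plex mass spectrometry, three biological replicates, mitosis taken 0.5 h after nocodazole release, G1/S directly after double thymidine block.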

With “MAEAEGESLESWLNKATNPSNRQEDWEYIIGFCDQINKELEGPQIAVRLLAHKIQSPQEWEALQALTVLEACMKNCGRRFHNEVGKFRFLNELIKVVSPKYLGDRVSEKVKTKVIELLYSWTMALPEEAKIKDAYHMLKRQGIVQSDPPIPVDRTLIPSPPPRPKNPVFDDEEKSKLLAKLLKSKNPDDLQEANKLIKSMVKEDEARIQKVTKRLHTLEEVNNNVRLLSEMLLHYSQEDSSDGDRELMKELFDQCENKRRTLFKLASETEDNDNSLGDILQASDNLSRVINSYKTIIEGQVINGEVATLTLPDSEGNSQCSNQGTLIDLAELDTTNSLSSVLAPAPTPPSSGIPILPPPPQASGPPRSRSSSQAEATLGPSSTSNALSWLDEELLCLGLADPAPNVPPKESAGNSQWHLLQREQSDLDFFSPRPGTAACGASDAPLLQPSAPSSSSSQAPLPPPFPAPVVPASVPAPSAGSSLFSTGVAPALAPKVEPAVPGHHGLALGNSALHHLDALDQLLEEAKVTSGLVKPTTSPLIPTTTPARPLLPFSTGPGSPLFQPLSFQSQGSPPKGPELSLASIHVPLESIKPSSALPVTAYDKNGFRILFHFAKECPPGRPDVLVVVVSMLNTAPLPVKSIVLQAAVPKSMKVKLQPPSGTELSPFSPIQPPAAITQVMLLANPLKEKVRLRYKLTFALGEQLSTEVGEVDQFPPVEQWGNL [GGA3]” the “solubility change mitosis (log2)” value (HeLa Kyoto [1]) was -0.218, the “solubility in G1/S (log2)” value (HeLa Kyoto [2]) was 0.445 and the melting temperature (HeLa Kyoto [3]; cell cycle stage: G1/S) was 50.1 °C. For the same sequence, the melting temperature (HeLa Kyoto [3]; cell cycle stage: mitosis) was 50.7 °C, the thermal stability score (HeLa Kyoto [4]; [5]) was 1.01 and the thermal stability score (HeLa Kyoto [4]; cell cycle stage: mitosis) was 0.468.

For “MAEAGDAALSVAEWLRALHLEQYTGLFEQHGLVWATECQGLSDTRLMDMGMLLPGHRRRILAGLLRAHTSPAPAPRPTPRPVPMKRHIFRSPPVPATPPEPLPTTTEDEGLPAAPPIPPRRSCLPPTCFTTPSTAAPDPVLPPLPAKRHLAELSVPPVPPRTGPPRLLVSLPTKEEESLLPSLSSPPQPQSEEPLSTLPQGPPQPPSPPPCPPEIPPKPVRLFPEFDDSDYDEVPEEGPGAPARVMTKKEEPPPSRVPRAVRVASLLSEGEELSGDDQGDEEEDDHAYEGVPNGGWHTSSLSLSLPSTIAAPHPMDGPPGGSTPVTPVIKAGWLDKNPPQGSYIYQKRWVRLDTDHLRYFDSNKDAYSKRFISVACISHVAAIGDQKFEVITNNRTFAFRAESDVERKEWMQALQQAMAEQRARARLSSAYLLGVPGSEQPDRAGSLELRGFKNKLYVAVVGDKVQLYKNLEEYHLGIGITFIDMSVGNVKEVDRRSFDLTTPYRIFSFSADSELEKEQWLEAMQGAIAEALSTSEVAERIWAAAPNRFCADCGAPQPDWASINLCVVICKRCAGEHRGLGAGVSKVRSLKMDRKVWTETLIELFLQLGNGAGNRFWAANVPPSEALQPSSSPSTRRCHLEAKYREGKYRRYHPLFGNQEELDKALCAAVTTTDLAETQALLGCGAGINCFSGDPEAPTPLALAEQAGQTLQMEFLRNNRTTEVPRLDSMKPLEKHYSVVLPTVSHSGFLYKTASAGKLLQDRRAREEFSRRWCVLGDGVLSYFENERAVTPNGEIRASEIVCLAVPPPDTHGFEHTFEVYTEGERLYLFGLESAEQAHEWVKCIAKAFVPPLAEDLLARDFERLGRLPYKAGLSLQRAQEGWFSLSGSELRAVFPEGPCEEPLQLRKLQELSIQGDSENQVLVLVERRRTLYIQGERRLDFMGWLGAIQKAAASMGDTLSEQQLGDSDIPVIVYRCVDYITQCGLTSEGIYRKCGQTSKTQRLLESLRQDARSVHLKEGEQHVDDVSSALKRFLRDLPDGLFTRAQRLTWLEASEIEDEEEKVSRYRELLVRLPPVNRATVKALISHLYCVQCFSDTNQMNVHNLAIVFGPTLFQTDGQDYKAGRVVEDLINHYVVVFSVDEEELRKQREEITAIVKMRVAGTASGTQHAGDFICTVYLEEKKAETEQHIKVPASMTAEELTLEILDRRNVGIREKDYWTCFEVNEREEAERPLHFAEKVLPILHGLGTDSHLVVKKHQAMEAMLLYLASRVGDTKHGMMKFREDRSLLGLGLPSGGFHDRYFILNSSCLRLYKEVRSQRPWSGAPETSHRPEKEWPIKSLKVYLGVKKKLRPPTCWGFTVVHETEKHEKQQWYLCCDTQMELREWFATFLFVQHDGLVWPSEPSRVSRAVPEVRLGSVSLIPLRGSENEMRRSVAAFTADPLSLLRNV [ARAP1]”, the “solubility change mitosis (log2)” value (HeLa Kyoto [1]) was -0.0622, the “solubility in G1/S (log2)” value (HeLa Kyoto [2]) was -0.0593 and the melting temperature (HeLa Kyoto [3]; cell cycle stage: G1/S) was 48.7 °C. For the same sequence, the melting temperature (HeLa Kyoto [3]; cell cycle stage: mitosis) was 49.1 °C, the thermal stability score (HeLa Kyoto [4]; [5]) was 0.748 and the thermal stability score (HeLa Kyoto [4]; cell cycle stage: mitosis) was 0.922.

With “MAEAVFHAPKRKRRVYETYESPLPIPFGQDHGPLKEFKIFRAEMINNNVIVRNAEDIEQLYGKGYFGKGILSRSRPSFTISDPKLVAKWKDMKTNMPIITSKRYQHSVEWAAELMRRQGQDESTVRRILKDYTKPLEHPPVKRNEEAQVHDKLNSGMVSNMEGTAGGERPSVVNGDSGKSGGVGDPREPLGCLQEGSGCHPTTESFEKSVREDASPLPHVCCCKQDALILQRGLHHEDGSQHIGLLHPGDRGPDHEYVLVEEAECAMSEREAAPNEELVQRNRLICRRNPYRIFEYLQLSLEEAFFLVYALGCLSIYYEKEPLTIVKLWKAFTVVQPTFRTTYMAYHYFRSKGWVPKVGLKYGTDLLLYRKGPPFYHASYSVIIELVDDHFEGSLRRPLSWKSLAALSRVSVNVSKELMLCYLIKPSTMTDKEMESPECMKRIKVQEVILSRWVSSRERSDQDDL [TSEN2]” the “solubility change mitosis (log2)” value (HeLa Kyoto [1]) was -0.177, the “solubility in G1/S (log2)” value (HeLa Kyoto [2]) was 0.0298 and the melting temperature (HeLa Kyoto [3]; cell cycle stage: G1/S) was 49.7 °C. For the same sequence, the melting temperature (HeLa Kyoto [3]; cell cycle stage: mitosis) was 49.9 °C, the thermal stability score (HeLa Kyoto [4]; [5]) was 0.825 and the thermal stability score (HeLa Kyoto [4]; cell cycle stage: mitosis) was 0.75.
